Laboratory results: article PMC3539332

Molecular target: Arfrp1-His (UniProt Q13795)
Assay: liposome flotation; liposomes incubated with Arfrp1-His (1.5 μg) and 100 μM GDP or GTPγS, with or without 1 μg MBP-Vangl2 cytosolic domain, in HKM buffer at room temperature for 45 min, then 2 μg purified AP-1 for 1 hr; sucrose flotation; γ1-adaptin in the top fraction by immunoblot, normalised to lipid

Sequence of UniProt Q13795 (Q13795 whole entry, the tested form may be a part): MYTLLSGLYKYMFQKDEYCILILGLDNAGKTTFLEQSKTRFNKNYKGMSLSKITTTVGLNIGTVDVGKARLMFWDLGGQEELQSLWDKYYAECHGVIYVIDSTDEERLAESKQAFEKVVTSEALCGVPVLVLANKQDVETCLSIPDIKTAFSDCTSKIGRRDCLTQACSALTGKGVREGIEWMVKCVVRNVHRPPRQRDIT

fold change of membrane recruitment of AP-1 with both Vangl2 cytosolic domain and Arfrp1-GTPγS: 3 fold
Substance: purified AP-1 complex (from UniProt Q2KJ81 1-423)
